The source of these data is doi:10.1101/681668 (bioRxiv, 2019).

This test deals with T1, MBP-ORC2 (human, UniProt Q13416 1-577).
T1 sequence: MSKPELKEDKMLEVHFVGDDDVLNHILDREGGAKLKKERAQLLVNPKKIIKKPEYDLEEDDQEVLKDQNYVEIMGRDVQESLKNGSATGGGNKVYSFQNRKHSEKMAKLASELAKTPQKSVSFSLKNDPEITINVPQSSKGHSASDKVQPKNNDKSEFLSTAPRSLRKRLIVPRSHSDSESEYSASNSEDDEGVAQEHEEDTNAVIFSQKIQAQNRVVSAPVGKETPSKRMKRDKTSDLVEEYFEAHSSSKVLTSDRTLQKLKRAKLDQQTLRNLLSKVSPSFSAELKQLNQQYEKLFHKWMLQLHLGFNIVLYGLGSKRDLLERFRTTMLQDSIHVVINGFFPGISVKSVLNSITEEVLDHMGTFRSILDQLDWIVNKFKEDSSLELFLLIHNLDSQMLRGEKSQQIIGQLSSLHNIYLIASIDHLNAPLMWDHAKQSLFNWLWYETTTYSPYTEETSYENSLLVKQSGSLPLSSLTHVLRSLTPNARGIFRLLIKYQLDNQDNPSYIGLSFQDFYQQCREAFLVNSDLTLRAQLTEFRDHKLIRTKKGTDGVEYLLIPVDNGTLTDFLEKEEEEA
In words: pull-down.

B1: GST-CDC6 (natural protein)
chain: MPQTRSQAQATISFPKRKLSRALNKAKNSSDAKLEPTNVQTVTCSPRVKALPLSPRKRLGDDNLCNTPHLPPCSPPKQGKKENGPPHSHTLKGRRLVFDNQLTIKSPSKRELAKVHQNKILSSVRKSQEITTNSEQRCPLKKESACVRLFKQEGTCYQQAKLVLNTAVPDRLPAREREMDVIRNFLREHICGKKAGSLYLSGAPGTGKTACLSRILQDLKKELKGFKTIMLNCMSLRTAQAVFPAIAQEICQEEVSRPAGKDMMRKLEKHMTAEKGPMIVLVLDEMDQLDSKGQDVLYTLFEWPWLSNSHLVLIGIANTLDLTDRILPRLQAREKCKPQLLNFPPYTRNQIVTILQDRLNQVSRDQVLDNAAVQFCARKVSAVSGDVRKALDVCRRAIEIVESDVKSQTILKPLSECKSPSEPLIPKRVGLIHISQVISEVDGNRMTLSQEGAQDSFPLQQKILVCSLMLLIRQLKIKEVTLGKLYEAYSKVCRKQQVAAVDQSECLSLSGLLEARGILGLKRNKETRLTKVFFKIEEKEIEHALKDKALIGNILATGLP
For the molecule B1, the binding result was “binds”.
